In the emibetuzumab library of Makowski et al. (2022) one finds non-specific binding call data, which are given here for 117 variants.

B1: VH:VL chains; a variant is named by its letters at X, in order (parent)
chain 1: QVQLVQSGAEVKKPGASVKVSCKASGYTFTDYXMHWVRQAPGQGLEWMGXVNPNXXXTTYNQKFEGRVTMTTDTSTSTAYMELRSLRSDDTAVYYCARXNXLDXWGQGTTVTVSS
chain 2: DIQMTQSPSSLSASVGDRVTITCSVSSSVSSIYLHWYQQKPGKAPKLLIYSTSNLASGVPSRFSGSGSGTDFTLTISSLQPEDFATYYCQVYSGYPLTFGGGTKVEIK

Variants of B1 are the subject of the data set. In words: yeast display scFab, FACS + sequencing. The procedure, abridged:
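Non-specific binding was called from deep sequencing of sorted yeast cells displaying a heavy-chain CDR mutant scFab library. Cells labelled with anti-Myc and biotinylated ovalbumin (260 μg/mL in PBSB, 3 h, room temperature) or soluble membrane proteins (130 μg/mL, 20 min on ice) were FACS-sorted, collecting the top 25% and bottom 10% of binders from two replicates. A sequence was positive when present in ≥3 of 4 pooled positive samples and absent from all negatives, and negative under the converse rule.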
With YTERGFGV, the non-specific binding call is recorded as “no binding”.

With SAAGGAAV chain 1 L45S, the non-specific binding call is “no binding”. Next, YRRGGSVF: “binds”; VRRGDSSD: “no binding”; VEEEGDAV: “no binding”. With YTKKTFSY the entry was “binds”; with SRARGAGA, “binds”; with YARADDVA, “no binding”.

As to VRTEDDWF, the non-specific binding call is “no binding”. In the case of YKTGSSWD, the non-specific binding call is recorded as “binds”. Consider YRGRGSVY, for which the non-specific binding call is listed as “binds”. Take YGGGGAVA: the non-specific binding call is listed as “no binding”. In the case of FTRGADAV, the non-specific binding call is “no binding”. Next, VTTRAAVS: “no binding”.

As for YRRRGSVD, the non-specific binding call is on record as “binds”. Next, DKGGSSLD: “no binding”; ARRGGSVD: “binds”. For FKRKAAAA, the non-specific binding call was “binds”. Next, YAGRGDVF: “no binding”. Next, VKARGSAV: “binds”. Next, VKGRASAF: “no binding”; VKGRGDAA: “no binding”; FRTRDFLV: “binds”. Consider STAEDDWV, for which the non-specific binding call is recorded as “no binding”. In the case of VTTRADVF, the non-specific binding call was “no binding”. Regarding FRGRGAWV, the non-specific binding call is on record as “binds”. Next, FRGRGAWS: “binds”; FKGEGAAD: “no binding”. Regarding YATTSFSF, the non-specific binding call is reported as “no binding”. Next, AATTDDAV: “no binding”. As for VEKEGDWY, the non-specific binding call was “no binding”. With YAGRTAGV the entry was “binds”; with YREGGSLD, “binds”. On to DAKKNASF, for which the non-specific binding call is listed as “no binding”. With VEGAASWV the entry was “no binding”; with YRRGDSSA, “binds”; with VAEAAVGD, “binds”. Turning to SKGEGDWA, the non-specific binding call is on record as “no binding”. With YRKGSSAA the entry was “binds”; with YKARGAAD, “binds”; with YRRRGDGV, “binds”. Take DKEGGDGY: the non-specific binding call is listed as “no binding”. Regarding YKTRGFGA, the non-specific binding call is “binds”.

Take DAGGDDVY: the non-specific binding call is on record as “no binding”. With VGAEGVWS chain 1 G66S the entry was “binds”; with VKGRSVGY, “binds”; with YKGGDDLA, “no binding”.

For the variant YRKGGAWY, the non-specific binding call is listed as “binds”. Next, AEGRGAVY: “no binding”. Next, VGATSFSA: “binds”; FTKAASWV: “no binding”. Next, DKRKGVAF: “binds”.

For the variant YRGGGDVS, the non-specific binding call is reported as “binds”. Next, YTEKTFSD: “binds”; YRTRGAGD: “binds”. As to AGGGNSGV, the non-specific binding call is given as “no binding”. As for VRTEDSWA, the non-specific binding call is given as “no binding”.

For VRGTDAVV, the non-specific binding call is recorded as “no binding”. For AGGGNDGA, the non-specific binding call was “no binding”.

As for YRGKDAAY, the non-specific binding call is “binds”. With YEGGGDVY the entry was “no binding”; with YKRGASVA, “binds”; with VRAGADAV, “no binding”.

As for AKGKASSD, the non-specific binding call is “binds”.

For the variant ARGEGSGV, the non-specific binding call was “no binding”. With DAGEAFSF the entry was “no binding”; with SAREGDLA, “no binding”; with FKGEGSLY, “no binding”. Next, SEGTGAGV: “no binding”. Next, YKGRGAVS: “binds”; FKGRGVWV: “binds”. For VATGDSLV, the non-specific binding call was “no binding”.

Take VGGKNSVD: the non-specific binding call is given as “no binding”. For FRGRGSSY, the non-specific binding call is recorded as “binds”.

Take VAGAGDVV: the non-specific binding call is given as “no binding”. With YRRRGVGS the entry was “binds”; with YAAKSDGY, “binds”. Take ARTKGSGY: the non-specific binding call is recorded as “binds”. Consider YGTRSAAD, for which the non-specific binding call is “no binding”. Take DTGANDWV: the non-specific binding call is listed as “no binding”. As to FRGRGFLS, the non-specific binding call is “binds”.

In the case of YRGKDAWS, the non-specific binding call is “binds”. With DKGEGAAA the entry was “no binding”. In the case of SRGRGSLS, the non-specific binding call was “binds”. On to VRRGDDVY, for which the non-specific binding call was “no binding”. Next, VRGGGAAV: “no binding”; FRTGSAWF: “binds”; YKARGAWS: “binds”.

For the variant SKKEDSAD, the non-specific binding call is given as “no binding”. Take VGGGASGV: the non-specific binding call is listed as “no binding”. Next, SRKGGDAA: “no binding”; DAARGDAV: “no binding”; ATAGSASD: “no binding”. With YRTGDDVF the entry was “no binding”.

For the variant YKARGSWD, the non-specific binding call is recorded as “binds”. As for SAEATDLY, the non-specific binding call is on record as “no binding”. Consider DRAGDAAV, for which the non-specific binding call is “no binding”. With VKGRGAAY the entry was “binds”.

Regarding DTKAADVA, the non-specific binding call is reported as “no binding”. With FKAGGAVA, the non-specific binding call is “binds”. Turning to YAGGGDGA, the non-specific binding call is on record as “no binding”. With DTTEASLV the entry was “no binding”. With VEEEGDVA the entry was “no binding”. Next, FKARDSSA: “binds”; YRKRGSLV: “binds”. For DEGTDYAA, the non-specific binding call is on record as “binds”. Regarding DAKRDSAS, the non-specific binding call is “no binding”. Regarding YKRESAAV, the non-specific binding call is “binds”. For the variant STGKGSGV, the non-specific binding call is recorded as “no binding”. With FKGRGAWS, the non-specific binding call is reported as “binds”. YTGTSSSV: the non-specific binding call is “no binding”. As to FKTESAAV, the non-specific binding call is reported as “binds”. As for FKTKDSVV, the non-specific binding call is given as “binds”. With YTEEAAVD the entry was “no binding”; with YKRGSSGD, “binds”; with VRARGSSF, “binds”.

Turning to YRRGGFGA, the non-specific binding call is given as “binds”.
